We go through 41 sequences from the nanobody polyreactivity screen of Harvey et al. (2022).

A short description of this series: yeast display, Sf9 membrane polyspecificity reagent, FACS + sequencing; frameworks hold sequencing errors. In outline: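 Nanobodies came from a synthetic yeast display library in Saccharomyces cerevisiae BJ5465, induced with galactose for 36–48 hours and stained for 1 hour at 4 °C with 10% biotinylated, detergent-solubilized Sf9 membrane reagent. Cells were enriched on streptavidin microbeads and then FACS-sorted, with low and high (top ~1%) gates set on anti-HA fluorescence for expression and streptavidin fluorescence for reagent binding. Each polyreactivity label reflects the gate a clone came from. Genes were amplified by colony PCR, sequenced by MiSeq 2 × 250 and filtered by CDR length.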
For the sequence “QVQHVESGGGLVQAGGSLRLSCAASGSTSDTNVMGWYRQDPGKERELVAAISYDDDRTYYADSVKGRFTISSDNAKNTVYLQMNSLKPEDTAVYYCATADDYPGDDYLEGGYWGQGTQVTVSS”, the “polyreactivity (PSR sort gate)” value is given as “low polyreactivity”.

In the case of “QVLLQESGGGLVQAGGSLRLSCAASGNIFTAGGMGWYRQAPVNERELVAGIGTGTSTNYADRVKGRFTISRDNAKNTVYLQMNSLKPEDTAVYYCAPAYYSGLSHWYWGQGTQVTVSS”, the “polyreactivity (PSR sort gate)” value is “low polyreactivity”.

For “QVQLVESGGGLVQAGGSLRLSCAASGSMFIWNAMGWYRQAPGKARELVAAISFTGTSTYYADSVKGRCTSSRDNAKNTVYLQMNSLKPEDTAVYYCNTDYRGSQYDYWVQGTQVTVSS”, the “polyreactivity (PSR sort gate)” value was “low polyreactivity”.

On to “QVQLVESGGGLVQAGGSLRLSCAASGTIFDYNAMGWYRQAPGKERELVAAISWRGGTTYYADSVKGRFTISRDNAKNTVYLQMNSLKPEDTAVYYCAAGRRGVYHGGYWGQGTQVTVSS”, for which the “polyreactivity (PSR sort gate)” value is on record as “high polyreactivity”.

Take “QVQLVESGGGLVQAGGSLRLSCAASGSTFLSYAMGWYRQAPGKERELVAAISWSDVNTYYADSVKGRFTISRDNAKNTVYLQMNSLKPEDTAVYYCNARYYLYWGQGTQVTVSS”: the “polyreactivity (PSR sort gate)” value was “low polyreactivity”.

Consider “QVQLVESGGGLVQAGGRLRLSCAASGRSYPPYAMGWYREAPGKERELLAAISYSGGSTYYADSVTGRFTISRDNAKNPVYLQMNSLKPEDTSVFYCNKDISREVGIRMDDWGQGTQVTVSS”, for which the “polyreactivity (PSR sort gate)” value is on record as “high polyreactivity”.

Regarding “QVQHVESGGGLVQAGGSLRLSCAASGRTFGRNAMGWYRQAPGKESEFVASINQRGGCTYYADSVKGRFTISRDIAKNTVYLQMNSLKPEDTAVYYCAKYVYVGYVRQVPYFRYDYWGQGTQVTVSS”, the “polyreactivity (PSR sort gate)” value is “high polyreactivity”.

Turning to “QVQLVESGGGLVQAGGSLRLSCAASGRTFAYYAMGWYRQAPGKERELVATITWNGGSTYYADSVKGRFTISRDNAKNTVYLQMNSLKPEDTAVYYCAVRLWFDYNYWGQGTQVTVSS”, the “polyreactivity (PSR sort gate)” value is on record as “low polyreactivity”.

For the sequence “QVQLVESGGVLVQAGGSLRLSCAASGGIFNYYAMGWYRQAPGKERELVAAISASGGSTYYADSVKGRFTISRDNAKNTVYLQMNILKPEDTAVYYCAAGLPYGYGYDYWGQGTQVTVSS”, the “polyreactivity (PSR sort gate)” value is listed as “low polyreactivity”.

Turning to “QVQLVESGGGLVQAGGSLRLSCAASGFTFYNYAMGWYRQAPGKERELVAAITSRGGSTYYADSVKGRFTISRDNAKNTVYLQMNSLKPEDTAVYYCNAVAKLYYWRYDYWGQGTQVTVSS”, the “polyreactivity (PSR sort gate)” value is listed as “low polyreactivity”.

Take “QVQLVESGGGLVQAGGSLRFSCAASGSTFRAYAMGWYRQAPGKEREFVASISWSGGRTYYADSVKGRFTISRDNAKNTVYLQMNSLIPEDTAVYYCAADYDVLDYGNLRYGFDYWGQGTKVTVSS”: the “polyreactivity (PSR sort gate)” value is given as “low polyreactivity”.

Turning to “QVQVVESGGGLVQAGGSLRLSCAASGRTFYGNAMGWYRQAPGKERELVASITSRGDNTYYADSVKGRFTISRDNAKNTVYFQMNSLKPEDTAVYYCAAGTVYYTYLWMGYWGQGTQVTVSS”, the “polyreactivity (PSR sort gate)” value was “low polyreactivity”.

“QVQLVESGGGLVQAGGSLRLSCAASGFTFSWYAMGWYRPAPGKERELVAAISWDGDSTYYADSVKGRFTISRDNAKNTVYLQMNSLIPEDTAVYYCAADFYYYWDGYDYWGQGTQVTVSS”: the “polyreactivity (PSR sort gate)” value is “high polyreactivity”.

Regarding “QVQLVESGGGLVQAGGSLRLSCAASGSTFFINAMGWYRQGPGKERELVASISYSGGSTYYAHSVKGRFTISRDNAKNTVYLQLNSLKPEDTAVYYCNADVRVFLHYYKYNYWGQGTQVTVSS”, the “polyreactivity (PSR sort gate)” value is “low polyreactivity”.

Take “QVQLVESGGGLVQAGGSLRLSCAASGRTFLVNAMGWYRQAPGKERELVAAISSVGSTNYADSVKGRFTISRDNAKNTVYLQMNSLKPEVTSVYYCAKDAEYDCGQGTQVTVSS”: the “polyreactivity (PSR sort gate)” value is recorded as “low polyreactivity”.

As to “QVQLVESGGGLVQAGGSLRLSCAASGRIFTRYAMGWYRQAPGKERELVATITKSGGSTYYADSVKGRFTISRDNAKNTVYLQMNSLKPEDTAVYYFAADSWWTYQYDYWGQGTQVTVSS”, the “polyreactivity (PSR sort gate)” value is “low polyreactivity”.

Consider “QVQLVESGGGLVQAGGSLRLSCADSGSTSYDYAMGWYRQAPGKERELVAAISGSSSTTYYADSVKGRFTISRDNAKNTVYLQMNSLKPEDTAVYYCNAVTTTGSGYGYWGQGTQVTVSS”, for which the “polyreactivity (PSR sort gate)” value is reported as “low polyreactivity”.

Regarding “QVQLVESGGGLVQAGGSLRLSCAASGRTFWRYAMGWYRQAPGKERELVARISWRGGSTNYADSVKGRFTISRDNAKITVYVQMNSLKAEDTAVYYCAADNSRYFLTGYDYWGQGTQVTVSS”, the “polyreactivity (PSR sort gate)” value is reported as “low polyreactivity”.

For the sequence “QVQLVESGGGLVQAGGSLRLSWAASGFTFKYYDMGWYRLAPGQERELVAAIDTSGGNTYYADSVKGRFTISRDNAKNTGYVQMNSLKPEETAVDYCAATVPYYHDDYWGQGTQVTVSS”, the “polyreactivity (PSR sort gate)” value was “low polyreactivity”.

“QVQLVESGGGLVQAGGSLRLTCAASGAIFDSYAMGWYRQAPGKEWQLVASISYRGGSTYYADSVKGRFTISRDHAKNTVYLQKNSLKPEDTAVYYCAATPGYHYRSWRYYYWGQGTLVTVSS”: the “polyreactivity (PSR sort gate)” value is “high polyreactivity”.

Turning to “QVQLVESGGGLVQAGGSLRLSCAASGSIFVTNAMGWYRQAPGKERELVAAISVSGGSTYYADSVKGRFTISRDKAKNTVYLQMNSLKPEDTAVYYCNTVRSPPGHDYWGLGTQVTVSS”, the “polyreactivity (PSR sort gate)” value is recorded as “low polyreactivity”.

For the sequence “QVQLVESGGGLVQAGGSLRLSCAASGSTFPPNAMGWYRQARGKARELVAVISYSDGSTYYADSVNGRFTISRDNAKNTVYLQMNSLKPEDTAVYYCAAYSGYAGVSMYYWGQGTQVTVSS”, the “polyreactivity (PSR sort gate)” value is reported as “low polyreactivity”.

As to “QVQLVESGGGLLKAGGSLRLSCAASGIIFDSYAMGWYIQAPGKERELVAAITSDSGRTYYADSVKGRFTISRDYAKNTFYLQMNSLKPEDTAVYYCAKRWEGPYDYWGQGSQVTVSS”, the “polyreactivity (PSR sort gate)” value is “low polyreactivity”.

“QVQLVESGGGLVQAGGSLRLSCAASGSTFTRYAMGWYRQAPGKERELVAAISLSGGDTYYADSVKGRFTISRDNAKNTVYLQMNSLKPEDTAVYYCAARWGYRGYSYEYWGQGTQVTVSS”: the “polyreactivity (PSR sort gate)” value is on record as “high polyreactivity”.

For the sequence “QVQLVESGGGLVQAGGSLRLSCAASGSIFPENAMGWYRQAPGKERELVAAITSSDSSTYYADSVKGRFTISRDNAKNTVYLHMNSLKPEDTAVYSCAAYRVGFRFREYYWGQGTQVTVSS”, the “polyreactivity (PSR sort gate)” value is listed as “low polyreactivity”.

Take “QVQLVESGGGLVQAGGSLRLSCAASGRIFDLYAMGWYRQAPGKERELVATISSGGSTYYADSVKVRFTISRDNAKNTVYLQMNSLKPEDTAVYYCAADSWVQFDYWGQGKQVTVSS”: the “polyreactivity (PSR sort gate)” value is “low polyreactivity”.

“QVQLVESGGGLVQAGGSLRLSCAASGRTFSNYAMGWYRQAPGKERELVAAITGSGGSTYYADSVKGRFTISRDNAKNTVYLQMHSLKPEDTAVYYCNAYRASKYLTGNGHDYWGQGTQVTVSS”: the “polyreactivity (PSR sort gate)” value was “low polyreactivity”.

In the case of “QVQLVESGGGLVQAGGSLRLICAASGFTFSTNAMGWYRQAPGKERELVAAITKSGGRTYYADSVKGRFTISRDNAKNTVYLQMNSLTPEDTAVYYCAAEVDRKGFYWYYWGQGTQVTVSS”, the “polyreactivity (PSR sort gate)” value was “high polyreactivity”.

In the case of “QVQLVESGGGLVQAVGSLRLSCAACGSIFYWNALGWYRQAPGKEREFVASIRKSGGSTNYADSVKGRFTISRDNAMNTVYLQMNSMKPEDSAVYDCAAYSYYRGPIYDYWGQGTQVTVSS”, the “polyreactivity (PSR sort gate)” value was “low polyreactivity”.

“QVQLVESGGGLVQAGGSLRLSCAASGFTFLGYDMGWYRQAPGKERELVATISSGGRTYYADSVKGRFTISRDNAKNTVYLQMNSMKPEDTAVYYFAAPRFRRLDFDFWGQGTQVTVSS”: the “polyreactivity (PSR sort gate)” value is “low polyreactivity”.

As to “QVQLVESGGGLVQAGGSLRLSCAASGLTFPSYAMGWYRQAPGKERELVAAISRRSGSTYYADSVKGRFTISRDNAKNTVYLQMNSLKPEDTAVYYCTTRRGERGYWGQGTQVTVSS”, the “polyreactivity (PSR sort gate)” value is “high polyreactivity”.

In the case of “QVQLVESGGGLVQAGGSLRLSCAASGFNFPYNAMGRYRQAPGKERELVAAITSGSNTYYADSVKGRFTISRDNAKNTVYLQMNSLKPEDTAVYYCAARGHGAYGYWGQGTQVTVSS”, the “polyreactivity (PSR sort gate)” value is listed as “low polyreactivity”.

For “QVQLVESGGGLVQAGGSLRLSCAASGSTFSGNAMGWYRQAPGKERELVAAISSGGDTYYADSVKGRFTNSRDNAKNTVYLQMNSLKPEDTAVYYCNARSTWRHRRDQVDFDYWGQGTQVTVSS”, the “polyreactivity (PSR sort gate)” value is on record as “low polyreactivity”.

Take “QVQLVESGGGLVQAGGSLRLSCAASGSIFTVYAMGWYRQAPGKERELVATITGSDGRTDYADSVKGRFTISRDNAKNTVYLQMNSLKPEDTAVYYCAAQVFKWKYRQSLWFDQGYYWGQGTQVTVSS”: the “polyreactivity (PSR sort gate)” value was “low polyreactivity”.

As to “QVQLVESGGGLVQAGGSLRLSCAASGITFQKYVMGWYRQAPGKEREFVAAITARGGTTYYADSVKGRFTISRDNAKNTVYLQMNSLKPEDTAVYYCAADLRRFQSYYYWGQGTQVTVSS”, the “polyreactivity (PSR sort gate)” value is listed as “high polyreactivity”.

For “QVQLVESGGRLVQAGGSLRLSCAASVSTFRKYAMGWYRQAPGKEREFVAAITWSTGTTYYADSVKGRFTISRDTAKNTVYLQMNSLKPEDTAVYYCAADSQPPHELYESIEHESWGQGTQVTVSS”, the “polyreactivity (PSR sort gate)” value is listed as “low polyreactivity”.

Turning to “QVKLVESGGGLVQAGGSLRLSCAASGSIFGGNAMGWYRQAPGKEREFVARITKRGGSTDYADSVKGRFTISRDNAKNTVYLQMNSLKPEDTAVYYCATGWTSKVHYRYGYWGQGTQVTVSS”, the “polyreactivity (PSR sort gate)” value is “high polyreactivity”.

For the sequence “QFQLVESGGGLDQAGGSLRLSCAASGSTSRKYTMGWYRQAPGTDRELVATISWSGGSTNYADSVKGRFTISRDNAKNTVYLQMNSLKPEDTAVYYCNAYVSPRYRGSRYYYWGQGTQVTVSS”, the “polyreactivity (PSR sort gate)” value is given as “high polyreactivity”.

Consider “QVQLVESGGGLVQAGGSLRLSCDASGIIFYYNAMGWYRQAPGKERELVDRINSGGSTNYADSVKGRFTISRDNAKNTVDFQMTSMKPEDTAVYYCAARVRRWSYYGALFEYWGQGTQVTVSS”, for which the “polyreactivity (PSR sort gate)” value is “low polyreactivity”.

As to “QVQLVESGGGLVQAGGSLRLSCAASGSISVWYVMGWYRQAPGKEREFVAAIDYGGGSTYADSVKGRFTISRDNAKNTVYLQMNSLKPEDTAVYYCNADNWVYLYDYWGQGTQVTVSS”, the “polyreactivity (PSR sort gate)” value is recorded as “low polyreactivity”.

With “QVQLVESGGGLVQAGGSLRLSCAASGRTFKSNAMRWYRQAPGKERELVATISRGGGSTYYADSVKGRFTISRDNAKNTVYLQMNSLKPEDTAVYYCAIGSNSYLRYHYTYPYDYWGQGTQVTVSS”, the “polyreactivity (PSR sort gate)” value is recorded as “high polyreactivity”.
